Consider six molecules from patent US20230065495A1, “MULTIPARTITE AND CIRCULARLY PERMUTED BETA-BARREL POLYPEPTIDES AND METHODS FOR THEIR USE” (University of Washington, priority 2020, published 2023).

Ends that are not written are not given here.

Test [1] has as its target T1, MBP-tagged split mFAP fragment m16 (β-strands 1-6 of mFAP2a).
T1 chain: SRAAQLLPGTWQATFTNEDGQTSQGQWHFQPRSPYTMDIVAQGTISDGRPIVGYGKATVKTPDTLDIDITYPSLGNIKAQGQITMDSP
Briefly: fluorescence complementation titration: MBP-tagged m78 titrated into fixed MBP-tagged m16 in 25.0 µM DFHBI-1T; signal did not plateau, Kd is at least the highest titrant concentration. The protocol: (§1) Split mFAP fragment affinities (FIG. 1d,e,f,g) were estimated by preparing MBP-tagged split mFAP fragments by large-scale protein purification in high salt Tev cleavage buffer⁹, with 25.0 μM DFHBI-1T final concentration at 28.0 μL final volumes per well in flat bottom, black polystyrene, non-binding surface 96-well half-area microplates (Corning 3686). 3.00 μL of either 132 μM m12, 122 μM m14, 101 μM m16, or 84.9 μM m17 in high salt Tev cleavage buffer was mixed with 3.00 μL of 150 μM DFHBI-1T in high salt Tev cleavage buffer. For each split mFAP fragment, 12.0 μL of the complementary split mFAP fragment in high salt Tev cleavage buffer (the titrant) was mixed in from eleven serial dilutions (\sqrt{10} dilution factor) starting from 422 μM m38, 33.0 μM m58, 348 μM m78, or 531 μM m8 stock solutions, respectively, including a twelfth condition without titrant. Fluorescence endpoints were measured on a Synergy Neo2 hybrid multi-mode reader (BioTek) using excitation wavelength λₑₓ=468 nm and emission wavelength λₑₘ=530 nm. For each titration, the fluorescence intensity of the condition without titrant was subtracted from the fluorescence intensities of samples containing titrant, then the background subtracted data was normalized from 0 to 1. […]

The target of test [2] is T2, MBP-tagged split mFAP fragment m14 (β-strands 1-4 of mFAP2a).
T2 chain: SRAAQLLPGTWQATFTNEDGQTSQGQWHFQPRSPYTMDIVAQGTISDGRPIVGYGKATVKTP
As to the kind of experiment: fluorescence complementation titration: MBP-tagged m58 titrated into fixed MBP-tagged m14 in 25.0 µM DFHBI-1T; signal did not plateau, Kd is at least the highest titrant concentration. The method, then:
as §1

In test [3] the target is T3, MBP-tagged split mFAP fragment m12 (β-strands 1-2 of mFAP2a).
T3 chain: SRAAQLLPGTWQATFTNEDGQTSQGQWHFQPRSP
Briefly: β-barrel self-complementation assay, equimolar MBP-tagged fragments in excess DFHBI-1T. The protocol: (§2) To measure fluorescence intensities in complementation assays (FIG. 1b), fluorescence was measured on a Synergy Neo2 hybrid multi-mode reader (BioTek) in flat bottom, black polystyrene, non-binding surface 96-well half-area microplates (Corning 3686). Each split mFAP fragment covalently fused to maltose binding protein (MBP) was purified by large-scale protein purification in high salt Tev cleavage buffer⁹. In technical triplicate, 12.0 μL of each MBP-tagged split mFAP fragment was mixed to an equimolar concentration supplemented with 1.00 μL of 1.25 mM DFHBI-1T (Lucerna) at 25.0 μL final volumes per well. Fluorescence endpoints were measured using excitation wavelength λₑₓ=478 nm and emission wavelength λₑₘ=520 nm. In technical triplicate, background fluorescence endpoints of wells with identical chromophore concentrations lacking protein (substituted for equivalent volumes of high salt Tev cleavage buffer) were measured, and the mean fluorescence endpoints were subtracted from the mean fluorescence endpoints of samples containing protein (FIG. 1b).

Test [4] has as its target T3, MBP-tagged split mFAP fragment m12 …. As to the kind of experiment: β-barrel self-complementation assay, equimolar MBP-tagged fragments in excess DFHBI-1T; reference is m1 with m28. The method, then: as §2
Test [5] has the same target. As to the kind of experiment: fluorescence complementation titration: MBP-tagged m38 titrated into fixed MBP-tagged m12 in 25.0 µM DFHBI-1T; signal did not plateau, Kd is at least the highest titrant concentration. The protocol:
as §1

Test [6] addresses T4, MBP-tagged split mFAP fragment m17 (β-strands 1-7 of mFAP2a).
T4 chain: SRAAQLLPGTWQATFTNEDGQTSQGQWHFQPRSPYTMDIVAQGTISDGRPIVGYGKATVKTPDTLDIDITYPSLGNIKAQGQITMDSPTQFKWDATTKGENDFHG
As to the kind of experiment: fluorescence complementation titration: MBP-tagged m8 titrated into fixed MBP-tagged m17 in 25.0 µM DFHBI-1T; signal did not plateau, Kd is at least the highest titrant concentration. The method, then: as §1

Test [7] can be described thus: cpmFAP fluorescence intensity assay. Particulars: equimolar concentration, excess DFHBI-1T. In kind it is biochemical. The protocol:
To measure the fluorescence intensities of cpmFAPs (FIG. 4b,d), fluorescence endpoints were measured on a Synergy Neo2™ hybrid multi-mode reader (BioTek) in flat bottom, black polystyrene, non-binding surface 96-well microplates (Corning 3650) or half-area microplates (Corning 3686). […]

Test [8] can be described thus: Chromophore titration with DFHBI. In kind it is binding. The method, then:
(§3) Fluorescence endpoints were measured on a Synergy Neo2™ hybrid multi-mode reader (BioTek) in flat bottom, black polystyrene, non-binding surface 96-well microplates (Corning 3650). In measuring chromophore binding affinities (FIG. 6d,e), mFAP2, mFAP2a, and mFAP2b, and mFAP10 were produced by large-scale protein purification and SEC purification^9. Proteins were aliquoted in eight technical replicates in 200 μL final volumes to 20.0 nM final concentration in ten serial dilutions (√{square root over (10)} dilution factor) of DFHBI starting from 31.6 μM DFHBI or 31.6 μM DFHBI-1T final concentrations, including an eleventh condition without chromophore. Fluorescence was excited at λex=468 nm and fluorescence emission measured at λem=530 nm. Background fluorescence endpoints of wells with identical chromophore concentrations but purified protein replaced with an identical volume of high salt Tev cleavage buffer were measured, and fluorescence endpoints subtracted from those measured with protein. Background-subtracted data were averaged and the means normalized from 0 to 1 and fit to a single binding site isotherm function using non-linear least squares fitting to obtain a fitted Kd value (Table 4), and the fit scaled to the maximum mean value (FIG. 6d,e).

Test [9] in a line: Chromophore titration with DFHBI-1T. In kind it is binding. The method, then: as §3
The nature of test [10]: Absolute quantum yield (integrating sphere) and brightness. In kind it is physicochemical. The method, then:
Protein preparation. mFAP2a, mFAP2b and mFAP10 were produced by large-scale protein purification^9 and dialyzed overnight into DPBS that was adjusted to pH 7.40 using NaOH.
Chromophore preparation. DFHBI (Lucerna) and DFHBI-1T (Lucerna) were dissolved to 20.0 mM in 100% DMSO, and diluted in DPBS (pH 7.40) to measure absorbances on a Jasco V-750 spectrophotometer at peak absorbance wavelengths (417 nm for DFHBI and 422 nm for DFHBI-1T). Following background subtraction of identical buffer without chromophore, Beer's Law was used to calculate the molar chromophore concentrations of the stock solutions using previously reported extinction coefficients^5.
Preparation of protein-chromophore complexes. […]
Absolute quantum yield. […] Absolute quantum yields were measured for solutions of protein-chromophore complexes in DPBS (pH 7.40) in which ≥95% of the total chromophore was occupying the protein binding pocket (Table 4). Protein-chromophore complex samples and control samples were excited at λex=440 nm and absolute quantum yields were calculated according to the equation: […]
where fem is the emitted photon flux and fabs is the absorbed photon flux. […] Absolute quantum yield data was analyzed with U6039-05 PLQY measurement software (Table 4; FIG. 8).

For TQFKWDATTKGENDFHGRLTGTLQRQE (designed binder, not shown: large carriers, also: MBP tag fused, side and linker not given here) [MBP-tagged split mFAP fragment m78 (β-strands 7-8 of mFAP2a)], in test [1], the Kd (commonly a measure of binding affinity in units of concentration) is no less than 232 µM.

B1: MBP-tagged split mFAP fragment m58 (β-strands 5-8 of mFAP2a) (designed binder, not shown: large carriers)
chain: DTLDIDITYPSLGNIKAQGQITMDSPTQFKWDATTKGENDFHGRLTGTLQRQE
modifications: also: MBP-tagged (side and linker not given here)
In the case of B1, the Kd in test [2] is no less than 22 µM.

B2: MBP-tagged split mFAP fragment m38 (β-strands 3-8 of mFAP2a) (designed binder, not shown: large carriers)
chain: YTMDIVAQGTISDGRPIVGYGKATVKTPDTLDIDITYPSLGNIKAQGQITMDSPTQFKWDATTKGENDFHGRLTGTLQRQE
As for B2, the “mean fluorescence intensity over mean background fluorescence intensity (fold)” value in [3] came to 7.34 fold. For the same molecule, the “background-subtracted mean fluorescence intensity relative to the m1 and m28 combination (fold)” value in test [4] worked out at 184 fold. The dissociation constant (Kd) in test [5] was no less than 281 µM.
As for RLTGTLQRQE (designed binder, not shown: large carriers, also: MBP tag fused, side and linker not given here) [MBP-tagged split mFAP fragment m8 (β-strand 8 of mFAP2a)], the dissociation constant (Kd) in test [6] was no less than 354 µM.

B3: cp35-34_mFAP2a_12: circularly permuted mFAP, SEQ ID NO: 341; brightest cpmFAP tested (protein)
chain: QEMDIVAQGTISDGRPIVGYGKATVKTPDTLDIDITYPSLGNIKAQGQITMDSPTQFKWDATTKGENDFHGRLTGTLQRTEEAKEATEEARRRGITTQAAQLLPGTWQATFTNEDGQTSQGQWHFQPRDG
With B3, the “fluorescence intensity relative to mFAP2a” value in test [7] was roughly 93%.

B4: mFAP10: canonical, single-chain mFAP, SEQ ID NO: 534 (protein)
chain: SRAAQLLPGTWQATFTNEDGQTSQGQIHFQPRSPYTMDIVAQGTISDGRPIVGYGKATVKTPDTLDIDITYPSLGNIKAQGQITMDSPTQFKFDATTKGENDFHGRLTGTLQRQE
In the case of B4, the “higher affinity for DFHBI than DFHBI-1T” value in test [8] was roughly 2.6 fold. Moreover, the Kd in test [9] was 0.045 µM. Also, in test [10], the “brighter fluorescence with DFHBI-1T than DFHBI” value is roughly 12 fold.
